We go through one molecule from US20160091498A1 (H LEE MOFFITT CANCER CENTER AND RESEARCH INSTITUTE, published 2016).

In this experiment the target is T1, NPAT (UniProt Q14207 1-1427).
T1 construct: other lysate proteins were present
T1 sequence (looked up): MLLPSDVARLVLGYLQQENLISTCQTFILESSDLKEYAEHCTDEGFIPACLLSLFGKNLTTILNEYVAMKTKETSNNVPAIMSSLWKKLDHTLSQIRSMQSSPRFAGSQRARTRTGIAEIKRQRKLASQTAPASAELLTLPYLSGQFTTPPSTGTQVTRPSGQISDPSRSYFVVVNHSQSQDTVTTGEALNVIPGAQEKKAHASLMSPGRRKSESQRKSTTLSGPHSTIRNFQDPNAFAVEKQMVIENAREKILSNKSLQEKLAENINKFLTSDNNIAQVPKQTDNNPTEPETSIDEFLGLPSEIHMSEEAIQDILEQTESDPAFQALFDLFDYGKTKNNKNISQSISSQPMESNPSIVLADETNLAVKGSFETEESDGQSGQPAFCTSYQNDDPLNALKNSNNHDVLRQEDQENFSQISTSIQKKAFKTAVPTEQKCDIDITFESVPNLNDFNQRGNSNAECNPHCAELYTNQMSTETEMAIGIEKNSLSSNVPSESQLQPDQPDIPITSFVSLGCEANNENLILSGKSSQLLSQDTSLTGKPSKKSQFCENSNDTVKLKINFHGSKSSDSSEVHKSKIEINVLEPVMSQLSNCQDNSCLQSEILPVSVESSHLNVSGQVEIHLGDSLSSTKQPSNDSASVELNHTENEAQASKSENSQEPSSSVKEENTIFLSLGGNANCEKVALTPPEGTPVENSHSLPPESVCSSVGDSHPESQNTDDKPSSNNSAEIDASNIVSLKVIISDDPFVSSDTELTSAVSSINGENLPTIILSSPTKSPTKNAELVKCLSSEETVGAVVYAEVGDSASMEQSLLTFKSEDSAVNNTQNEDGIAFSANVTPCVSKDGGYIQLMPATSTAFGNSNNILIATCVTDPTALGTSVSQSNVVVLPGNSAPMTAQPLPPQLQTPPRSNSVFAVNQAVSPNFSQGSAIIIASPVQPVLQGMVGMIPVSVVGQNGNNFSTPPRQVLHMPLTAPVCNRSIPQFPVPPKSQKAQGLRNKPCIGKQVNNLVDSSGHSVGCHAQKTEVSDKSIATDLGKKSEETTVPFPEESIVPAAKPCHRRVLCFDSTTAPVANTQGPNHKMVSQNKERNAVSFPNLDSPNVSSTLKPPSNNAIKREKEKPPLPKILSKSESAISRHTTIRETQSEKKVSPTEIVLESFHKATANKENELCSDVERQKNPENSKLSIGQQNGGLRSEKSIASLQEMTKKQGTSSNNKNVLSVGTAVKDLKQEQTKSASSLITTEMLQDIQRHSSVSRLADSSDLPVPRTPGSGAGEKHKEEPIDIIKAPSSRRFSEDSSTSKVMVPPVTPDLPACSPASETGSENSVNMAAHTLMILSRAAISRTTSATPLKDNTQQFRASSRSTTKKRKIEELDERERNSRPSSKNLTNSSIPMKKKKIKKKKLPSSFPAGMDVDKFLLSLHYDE
Nature of the experiment: filter binding: peptide on nitrocellulose, HEK293 lysate, NPAT immunoblot.

Primed or numbered codes have the meaning given here. No end group written: not given here. Biotin′ = not defined here

B1: H2B(25-49) (peptide)
peptide: DGKKRKRSRKESYSVYVYKVLKQVH-{Biotin′}
notes: also called unphosphorylated H2B; human histone H2B peptide spanning amino acids 25-49
In the case of B1, the binding result is “binds”.
